This is an account of results in paper PMC3448853.

Assay in all cases: SEC
(In general: SEC sorts molecules by how far they enter the pores of the column.)

Assay [1] addresses aglycosylated Fc5 (E382V/M428I) variant of human IgG1 Fc (human).
Assay [2] addresses aglycosylated human IgG1 Fc (wild type), E. coli expressed (human).
Assay [3] addresses glycosylated human Fc (wild type), Bethyl Laboratories (human).

For orientation: stoichiometry N means a count of units in the complex or per binding partner. Turning to “aglycosylated Fc5 (E382V/M428I) variant of human IgG1 Fc (domain or fragment)”, in assay [1], the stoichiometry N is 2.

In assay [2], “aglycosylated human IgG1 Fc (wild type), E. coli expressed (domain or fragment)” returned a stoichiometry N of 2.

As to “glycosylated human Fc (wild type), Bethyl Laboratories (domain or fragment)”, the stoichiometry N in assay [3] was 2.
